# Results published in publication PMC10907274.
# Where “and” joins values, the source holds several entries; their conditions need not be identical. Identical values can stand only once.
# Target: Dark (wild type), auto-inhibited monomer (D. melanogaster) (UniProt Q7KLI1)
# Test: cryo-EM structure
substance,measurement,value
"Dark (wild type), auto-inhibited monomer (from UniProt Q7KLI1 1-1440) (natural protein)",stoichiometry N,6 and 8
